According to the supplement of paper PMC9170038:

Tested on: MS2 coat protein
Assay: apparent KD of MS2 coat protein; designed switch direction (-1 OFF switch, 1 ON switch): -1; higher = weaker reporter binding
Method in brief: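 The reported apparent KD is a per-design median over clusters, from curve fits of normalised cluster fluorescence. Protein titrations used SNAP-549-labelled MS2 coat protein, doubled from 0.7 or 1.5 nM to 3 µM, in Tris-HCl pH 7.5 buffer with KCl, MgCl2, BSA, DTT, tRNA and Tween-20, with no input, 200 uM small-molecule ligand, or an oligonucleotide input. The RNA switches were transcribed on Illumina chips by stalled E. coli RNA polymerase.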

[1] = input ligand: microRNA oligo, concentration not stated
[2] = Eterna round: R95, input ligand: microRNA oligo, concentration not stated
[3] = Eterna round: R95, input ligand: FMN 200 uM
[4] = Eterna round: R95, input ligand: none

Sequence | apparent KD of MS2 coat protein (input ligand: FMN 200 uM) [nM] | apparent KD of MS2 coat protein (input ligand: none) [nM] | apparent KD of MS2 coat protein [2] [nM] | also measured
AAAAUAAAGAUAGGAUAUGCAGUAUAGCAAGAUCCGGACAUGAGGAUCACCCAUGUACUUCGAAAGCAGAAGGAUCAAACAAAA [Zamale] (Eterna round: R96, puzzle: Exclusion NG 2) | 30.3 | 26.6 | – | apparent KD of MS2 coat protein [1]: 30 nM
GAUUGACAUGAGGAUCACCCAUGUGAGGAUAUCGGCCGGACCUUGUUAGCUUCCAUCGCGAGAAGGUACAUAGG [Exclusion 1 V34] (puzzle: Exclusion 1) | – | – | 16.9 | –
AUUUAGUGAGGAUAUGGUAACGUUUACAUGAGGAUCACCCAUGUUUCAUGGGACUAGAGACUAGAAGGCACUAACG [JR_Ex5_Sub029] (Eterna round: R97, puzzle: Exclusion 5) | 291 | 306 | – | –
UAAAGUCAAGGAUAUGGAAGUCCAAACAUGAGGAUCACCCAUGUAAACACAUUGGGAAGCCCAGAAGGUGGCCGUA [Eternabot (L2) Solution 31] (Eterna round: R97, puzzle: Exclusion 5) | 76.4 | 204 | – | –
GGACAGCGAGGAUAUACGUGUACGUUAUCCUCUAUGGGUCAACAUGAGGAUCACCCAUGUAGAAGGCGCAUAAU [Mabima] (puzzle: Exclusion 2) | – | – | 18.7 | –
CAUCCACAUGAGGAUCACCCAUGUGAGGAUAUGAUACUAUGUACUUCGGUACAUAGUAUCAGAAGGCACAGGUG [Ex1-3: 59] (puzzle: Exclusion 1) | – | – | 111 | –
GUCAUGUUAGGAUAUCUGACAUGUGACUUCGGUCACUGUCCAGAGAAGGAACAUGAGGAUCACCCAUGUUGGAC [Ex4-3: 55] (puzzle: Exclusion 4) | – | – | 43.2 | –
CCGGAAUUGGAGGAUAUAGGAGUCGAUAGACACCUAGAAGGUCAGACAUGAGGAUCACCCAUGUGUCCUACCGG [Fiskers Ex 6 - 87] (puzzle: Exclusion 6) | – | – | 18.3 | apparent KD of MS2 coat protein [3]: 19.9 nM; apparent KD of MS2 coat protein [4]: 17.8 nM
UAUUAUCAAGCUAGAUCCCACAUGAGGAUCACCCAUGUGCUCGUCUUAUUUCCGGAAUUAUUGGGCUCUCGUCUUUU [JR_STOV1_Sub092] (Eterna round: R97, puzzle: Sensor, turn-off variant 1) | 235 | 238 | – | –
CUUAGACAUGAGGAUCACCCAUGUGAGGAUAUGAUACAAUCAUACUAACAUAAUCACAUCAGAAGGCACAUAUG [Mat - Mod of JL D68] (puzzle: Exclusion 1) | – | – | 55.8 | apparent KD of MS2 coat protein [3]: 34.6 nM; apparent KD of MS2 coat protein [4]: 52.4 nM
GAGAAGUGAGGAUAUACGAUAAGGAUGAAAGGAAGGAAUGAGUAGAAGGCACAUGAGGAUCACCCAUGUAGAGU [JR_Exclu4_Sub079] (puzzle: Exclusion 4) | – | – | 25.1 | apparent KD of MS2 coat protein [3]: 24.1 nM; apparent KD of MS2 coat protein [4]: 26.3 nM
UUUAUAUAGUAAGGAUAUGUAUUAUUUUUGUCAACAGAAGGUACUGACAUGAGGAUCACCCAUGUUUUAGUGUGGGCAUGUAGU [JMF's solution 99] (Eterna round: R96, puzzle: Exclusion NG 1) | – | – | – | apparent KD of MS2 coat protein [1]: 177 nM
GUAGGGUCAGGAUAUACUGGCUGAGGGAUGUAUUGUAGUUGGUAGAAGGGACAUGAGGAUCACCCAUGUAAGAA [JR_Exclu4_Sub056] (puzzle: Exclusion 4) | – | – | 31.6 | –
UUUUGGCAAGCGAGAUCCUACAUGAGGAUCACCCAUGUUGACCAUGGUUUCCAUGGUCAUUUUGCUCGUCUUGUGUG [jl TITIN mod 2] (Eterna round: R97, puzzle: Sensor, turn-off variant 1) | 31.8 | 32.3 | – | –
AGUCGUAGACAGGAUAUGCGGCUAAUAAAUAAUGCAGAAGGGUCUACUUGAGGAUCACCCAAGUGGGCGGUCUG [jl-ex6-4.23 ViennaUCT mod] (Eterna round: R97, puzzle: Exclusion 6) | 70.3 | 17.3 | – | –
UUAAUUAAUUUAUUAGAUCCUCACAUGAGGAUCACCCAUGUGCAGGAUAUCAGCUCGUUUAGAGCUGAGAAGGGCACUAUAAAU [ExNG3/10-B2] (Eterna round: R96, puzzle: Exclusion NG 3) | 24.6 | 38.1 | – | apparent KD of MS2 coat protein [1]: 41.8 nM
AUACCCAGAGGAUAUGCCGCUGGGUGCCCUCUGCAUAAAACACUUGAGGAUCACCCAAGUAGAAGGCUGGGCUC [Leiseses] (Eterna round: R97, puzzle: Exclusion 2) | 173 | 78.1 | – | –
UACAUGAGGAUCACCCAUGUCUUUUCGUGUAUGGUACCCAUCUAGGAUAUCGUGUUAUUUAACCACGAGAAGGAGAGUAUCAAU [MOD5 Solution 21 by JMF] (Eterna round: R96, puzzle: Exclusion NG 3) | 65.6 | 66.5 | – | apparent KD of MS2 coat protein [1]: 55.9 nM

Sequence | apparent KD of MS2 coat protein (input ligand: FMN 200 uM) [nM] | apparent KD of MS2 coat protein (input ligand: none) [nM] | apparent KD of MS2 coat protein [2] [nM] | also measured
ACCGCUUCUGCAGGAUAUGGACAACAUGAGGAUCACCCAUGUGAUCUAUAAAGUAGUGGUGGCGUCCAGAAGGGCAGAUUAAGG [Maamabi] (Eterna round: R96, puzzle: Exclusion NG 2) | 197 | 96.3 | – | apparent KD of MS2 coat protein [1]: 48.2 nM
CAUGAUCUUCGGAUCAUGUACAUGAGGAUCACCCAUGUGACGAGUAGAUCCUCAAACAAGCUUUUUGCUCGUCUUAU [Sensor v3 - Turn-off variant 1 - 19] (puzzle: Sensor v3, turn-off variant 1) | – | – | 12.1 | apparent KD of MS2 coat protein [3]: 50.7 nM; apparent KD of MS2 coat protein [4]: 64.5 nM
CCAACUAAUUAGGAUAUUAAGGACAUCAGUAAGUAAGAAGGGAUUACAUGAGGAUCACCCAUGUGGUCCUCGGG [Eternabot (L2) Solution 57] (Eterna round: R97, puzzle: Exclusion 6) | 226 | 147 | – | –
UGCAGACGAGGAUAUGAUUAAUAAUACAUGAGGAUCACCCAUGUAAUACUGAUCUAUGGAUCAGAAGGCGUCUGCA [E5/6-A1] (Eterna round: R97, puzzle: Exclusion 5) | 11.4 | 12.9 | – | –
ACCAGCAUACGGAGAUCCAACAUGAGGAUCACCCAUGUCUGGAAAGCUUUUUGCUUGUCUUAUCCUCCUCUGUGUGU [Design #5] (Eterna round: R97, puzzle: Sensor, turn-off variant 1) | 30.2 | 32.2 | – | –
GCCUCACUUGAGGAUCACCCAAGUCAGGAUAUCUACAAGCCGGCCAUACCGGCUUGCAAGAGAAGGGACUCUAA [Xemamaqu] (Eterna round: R97, puzzle: Exclusion 1) | 178 | 38.5 | – | –
CAGUACUGAGGAUAUACAUGAGGAUCACCCAUGUGUUCCAGCUAGGAAUCUAGCAAAAGUAGAAGGCAGUACUG [salish99_ex3_r3_094x] (Eterna round: R96, puzzle: Exclusion 3) | 727 | 25.1 | – | apparent KD of MS2 coat protein [1]: 22.4 nM
CUGACGGCAGGAUAUACAUGAGGAUCACCCAUGUAAAUUUUUCGUUUAACUUGAAUGUGUAGAAGGGCCCAACC [Ex3 #79] (Eterna round: R97, puzzle: Exclusion 3) | 19.6 | 21.5 | – | –
UGGCUUUGAGGAUAUACAUUGAAUAAGAUUCAUGUAAAACUACAUGAGGAUCACCCAUGUAGAAGGCAAGGCCU [Mat - Exclusion 2 - JL Mod - D74] (Eterna round: R97, puzzle: Exclusion 2) | 26.9 | 16 | – | –
CCCGUGUUAGGAUAUACGGCACACCCGCCAGCGGGUAUAUAGUAGAAGGAACAUGAGGAUCACCCAUGUAUAGC [Sobiza] (puzzle: Exclusion 4) | – | – | 15.6 | –
GCACGGUUGCUAGGAUAUCCUUGCGAUUAGCAAGGAGAAGGAGCACAUGAGGAUCACCCAUGUACCUCAAUAAUCCUUCCGUGC [Eli exng1 - 028] (Eterna round: R96, puzzle: Exclusion NG 1) | 12.9 | 15.6 | – | apparent KD of MS2 coat protein [1]: 13.2 nM
GCACUGGCAGGAUAUACAUGAGGAUCACCCAUGUGAUCCCUUAGGUACAAAAGUACCAGUAGAAGGGCCUGUGC [Omei Ex3 Model Bachelor's Dilema v50] (Eterna round: R97, puzzle: Exclusion 3) | 315 | 564 | – | –
UUCCGACAUGAGGAUCACCCAUGUAAGGAUAUGCACUAGAGGACAAACCCUCUUAACGGCAGAAGGUGCAGGGA [Solaleisra] (Eterna round: R97, puzzle: Exclusion 1) | 40.9 | 18 | – | –
GAUACACAUGAGGAUCACCCAUGUUAGGAUAUUAGCGGGAAAGCUGUCAAAACGCCGAUGAGAAGGAACAGGAG [Excls1-IX] (puzzle: Exclusion 1) | – | – | 31.9 | –
GGUGGGCUAGGAUAUGCUUUGGGUGGGCAUUCCUUCGAUAAACUUGAGGAUCACCCAAGUAGAAGGAGCUUGCC [salish99_ex2_r4_023] (Eterna round: R97, puzzle: Exclusion 2) | 21.8 | 35.4 | – | –
AAGUAACAUGAGGAUCACCCAUGUUAGGAUAUCUCGGCCACAGGAACGCUGUAAAGCCAGAGAAGGAGCGGGUG [Mabi] (Eterna round: R97, puzzle: Exclusion 1) | 156 | 127 | – | –
CCGAUCAGUGUCAGGAUAUCUACAGGACUGCCUCGAGAGAAGGGACAUGAGGAUCACCCAUGUACCCGGGCAAG [BmEX4 B.2] (Eterna round: R97, puzzle: Brourd's mod of Exclusion 4) | 15 | 12.8 | – | –
